Measurements from paper PMC5021285.
Several values for one entry are separate records, joined by “and”; a condition that tells them apart may be missing. Equal entries are not always repeated.

Key:
[1] = target: LigB12, tag free (12th Ig-like domain of Leptospira immunoglobulin-like protein B) (Leptospira interrogans serovar Pomona); experiment: SPR; Biacore 3000; tag free LigB12 amine-coupled to a CM5 chip (1000 RU); FgαCC truncates 0-3 μM in PBS, 30 μL/min, 25°C; 1:1 Langmuir model
[2] = target: D1066A and E1088A; experiment: ELISA; LigB12 WT, mutants or BSA coated (1 μM/well); 5 μM GST-FgαCC8; anti-GST-HRP; relative binding (%) against WT
[3] = target: LigB12 F1054A (Leptospira interrogans serovar Pomona); experiment: as above
[4] = target: LigB12 D1061N (Leptospira interrogans serovar Pomona); experiment: as above
[5] = target: LigB12 A1065K (Leptospira interrogans serovar Pomona); experiment: as above
[6] = target: His-Sumo tagged FgαCC8 (human) (UniProt P02671); experiment: ELISA; His-Sumo FgαCC8 captured by coated anti-His antibody; GST-LigB12 0-5 μM in phosphate buffer pH 6, 150 mM NaCl; anti-GST-HRP
[7] = target: His-Sumo tagged FgαCC8 (human) (UniProt P02671); experiment: ELISA; His-Sumo FgαCC8 captured by coated anti-His antibody; GST-LigB12 0-5 μM in phosphate buffer pH 7, 150 mM NaCl; anti-GST-HRP (Fig 5A and Fig 5B)
[8] = target: His-Sumo tagged FgαCC8 (human) (UniProt P02671); experiment: ELISA; His-Sumo FgαCC8 captured by coated anti-His antibody; GST-LigB12 0-5 μM in phosphate buffer pH 5, 150 mM NaCl; anti-GST-HRP
[9] = target: Factor XIII (FXIII) (UniProt P00488); experiment: ELISA; FXIII, FgαCC8 (positive control) or BSA coated; GST-LigB12 0-3 μM; anti-GST-HRP
[10] = target: FgαCC8 I613A (human) (UniProt P02671); experiment: ELISA; FgαCC8 WT, alanine mutants or BSA coated (1 μM/well); 5 μM GST-LigB12; anti-GST-HRP; relative binding (%) against WT
[11] = target: FgαCC8 R611A (human) (UniProt P02671); experiment: as above
[12] = target: FgαCC8 R608A (human) (UniProt P02671); experiment: as above
[13] = target: FgαCC8 H614A (human) (UniProt P02671); experiment: as above
[14] = target: FgαCC8 L618A (human) (UniProt P02671); experiment: as above
[15] = target: His-Sumo tagged FgαCC8 (human) (UniProt P02671); experiment: ELISA; His-Sumo FgαCC8 captured by coated anti-His antibody; GST-LigB12 0-5 μM in phosphate buffer pH 6, 1200 mM NaCl; anti-GST-HRP
[16] = target: His-Sumo tagged FgαCC8 (human) (UniProt P02671); experiment: ELISA; His-Sumo FgαCC8 captured by coated anti-His antibody; GST-LigB12 0-5 μM in phosphate buffer pH 7, 1200 mM NaCl; anti-GST-HRP
[17] = target: His-Sumo tagged FgαCC8 (human) (UniProt P02671); experiment: ELISA; His-Sumo FgαCC8 captured by coated anti-His antibody; GST-LigB12 0-5 μM in phosphate buffer pH 7, 75 mM NaCl; anti-GST-HRP
[18] = target: FgαCC2 (human) (UniProt P02671); experiment: ELISA; 1 μM FgαCC, FgαCC truncates or BSA coated on microtiter wells; GST-LigB12 0-3 μM, 1 h 37°C; anti-GST-HRP; KD = EC50 of a dose-response fit
[19] = target: FgαCC8 (C-terminal 23 amino acids of the fibrinogen α chain) (human) (UniProt P02671); experiment: as above
[20] = target: FgαCC (C-terminal region of the fibrinogen αC domain) (human) (UniProt P02671); experiment: as above
[21] = target: FgαCC3 (human) (UniProt P02671); experiment: as above
[22] = target: FgαCC5 (human) (UniProt P02671); experiment: as above
[23] = target: His-Sumo tagged FgαCC8 (human) (UniProt P02671); experiment: ELISA; His-Sumo FgαCC8 captured by coated anti-His antibody; GST-LigB12 0-5 μM in phosphate buffer pH 6, 75 mM NaCl; anti-GST-HRP
[24] = target: Factor XIII (FXIII) (UniProt P00488); experiment: ELISA; inhibition: FXIII coated; tag free LigB12 or LigB4 0-10 μM, 1 h 37°C, unbound washed off; then 1 μM His-Sumo FgαCC, 1 h 37°C; anti-His-HRP; binding relative to wells without LigB
[25] = target: GST tagged FgαCC8, P02671-2; experiment: ELISA; details: 5 μM GST tagged FgαCC8 added to coated wells (1 μM/well); parent: est. 100; read off a plot
[26] = target: T1, GST tagged LigB12 (12th Ig-like domain of Leptospira immunoglobulin-like protein B); experiment: ELISA; details: chain shown with the change; 5 μM GST tagged LigB12 added to coated wells (1 μM/well); parent: est. 100; read off a plot
T1 chain: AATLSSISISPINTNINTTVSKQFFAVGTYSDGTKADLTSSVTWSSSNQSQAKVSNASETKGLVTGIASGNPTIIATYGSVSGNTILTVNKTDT

Chain of UniProt P00488 (P00488 whole entry, chain 1 of 2): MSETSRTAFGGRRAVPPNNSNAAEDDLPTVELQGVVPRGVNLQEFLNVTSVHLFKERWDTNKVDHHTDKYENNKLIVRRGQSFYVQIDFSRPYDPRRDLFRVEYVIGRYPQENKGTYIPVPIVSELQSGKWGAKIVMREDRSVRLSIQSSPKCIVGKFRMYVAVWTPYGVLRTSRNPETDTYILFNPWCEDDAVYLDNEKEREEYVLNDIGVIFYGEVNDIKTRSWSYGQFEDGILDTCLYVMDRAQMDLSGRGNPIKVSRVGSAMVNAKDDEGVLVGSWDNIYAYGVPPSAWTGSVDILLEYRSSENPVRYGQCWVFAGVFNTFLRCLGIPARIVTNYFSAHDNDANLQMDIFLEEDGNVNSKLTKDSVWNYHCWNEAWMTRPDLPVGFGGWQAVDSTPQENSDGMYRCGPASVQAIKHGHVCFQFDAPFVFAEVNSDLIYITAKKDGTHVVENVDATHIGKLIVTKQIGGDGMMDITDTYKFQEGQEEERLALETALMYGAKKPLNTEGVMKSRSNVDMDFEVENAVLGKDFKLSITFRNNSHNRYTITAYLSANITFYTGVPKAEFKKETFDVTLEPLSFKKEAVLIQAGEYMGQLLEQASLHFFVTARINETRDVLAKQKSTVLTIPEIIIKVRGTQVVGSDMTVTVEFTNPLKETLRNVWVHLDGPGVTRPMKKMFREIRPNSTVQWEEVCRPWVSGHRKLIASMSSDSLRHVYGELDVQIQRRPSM
Chain of UniProt P00488 (P05160 21-661, chain 2 of 2, further chain): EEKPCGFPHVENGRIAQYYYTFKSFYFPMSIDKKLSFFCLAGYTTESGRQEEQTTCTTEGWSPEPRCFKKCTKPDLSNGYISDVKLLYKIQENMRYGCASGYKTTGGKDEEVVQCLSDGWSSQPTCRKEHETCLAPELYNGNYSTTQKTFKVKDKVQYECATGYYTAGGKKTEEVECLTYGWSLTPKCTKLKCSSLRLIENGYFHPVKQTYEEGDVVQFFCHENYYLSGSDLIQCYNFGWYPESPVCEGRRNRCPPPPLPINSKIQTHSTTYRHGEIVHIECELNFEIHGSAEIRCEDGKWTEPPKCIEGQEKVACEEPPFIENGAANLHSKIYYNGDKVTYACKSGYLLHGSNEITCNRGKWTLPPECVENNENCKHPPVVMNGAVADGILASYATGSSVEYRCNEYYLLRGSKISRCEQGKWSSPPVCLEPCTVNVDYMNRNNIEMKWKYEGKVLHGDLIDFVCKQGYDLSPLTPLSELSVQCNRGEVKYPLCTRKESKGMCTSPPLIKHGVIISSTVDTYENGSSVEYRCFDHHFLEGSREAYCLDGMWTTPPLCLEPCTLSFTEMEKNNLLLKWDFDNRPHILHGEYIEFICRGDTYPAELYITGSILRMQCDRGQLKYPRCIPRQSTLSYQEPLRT

FgαCC3 (from UniProt P02671-2 526-644) (domain or fragment)
Kd [1]: 704 nM | koff [1]: 0.0339 s⁻¹ | kon [1]: 48100 M⁻¹ s⁻¹

FgαCC5 (from UniProt P02671-2 579-644) (domain or fragment)
Kd [1]: 1040 nM | koff [1]: 0.0384 s⁻¹ | kon [1]: 36900 M⁻¹ s⁻¹

FgαCC8 (C-terminal 23 amino acids of the fibrinogen α chain) (from UniProt P02671-2 622-644) (domain or fragment)
Kd [1]: 959 nM | koff [1]: 0.0357 s⁻¹ | kon [1]: 37200 M⁻¹ s⁻¹

GST tagged FgαCC8 (from UniProt P02671-2 622-644) (domain or fragment)
percent reduction of binding relative to WT [2]: 10 to 12% | percent reduction of binding relative to WT [3]: 51% | percent reduction of binding relative to WT [4]: > 30% | percent reduction of binding relative to WT [5]: 46%

GST tagged LigB12 (12th Ig-like domain of Leptospira immunoglobulin-like protein B) (domain or fragment)
Kd [6]: 470 nM | Kd [7]: 820 nM and 620 nM | Kd [8]: 1830 nM | Kd [9]: 150 nM | percent reduction of binding relative to WT [10]: 47% | percent reduction of binding relative to WT [11]: > 60% | percent reduction of binding relative to WT [12]: > 60% | percent reduction of binding relative to WT [13]: 50% | percent reduction of binding relative to WT [14]: 12% | Kd [15]: 220 nM | Kd [16]: 6.61 µM | Kd [17]: 460 nM | fold over the negative control (BSA) at 3 μM LigB12 [18]: 2.5 fold | Kd [19]: 760 nM | Kd [20]: 370 nM | Kd [21]: 510 nM | Kd [22]: 580 nM | Kd [23]: 1290 nM

LigB12, tag free (12th Ig-like domain of Leptospira immunoglobulin-like protein B) (domain or fragment)
percent reduction of FgαCC binding to FXIII at high LigB12 concentrations (fit of the dose inhibition curve) [24]: 56.7%

LigB12, tag free (12th Ig-like domain of Leptospira immunoglobulin-like protein B) D1066A
percent of parent [25]: 88 % of WT

LigB12, tag free (12th Ig-like domain of Leptospira immunoglobulin-like protein B) E1088A
percent of parent [25]: 90 % of WT

LigB12, tag free (12th Ig-like domain of Leptospira immunoglobulin-like protein B) P1040C; F1053C
percent of parent [25]: 96 % of WT

B1: FgαCC8 (C-terminal 23 amino acids of the fibrinogen α chain), P02671-2 K606A (peptide)
chain: GHAASRPVRGIHTSPLGKPSLSP
percent of parent [26]: 78 % of WT

B2: FgαCC8 (C-terminal 23 amino acids of the fibrinogen α chain), P02671-2 V610A (peptide)
chain: GHAKSRPARGIHTSPLGKPSLSP
percent of parent [26]: 99 % of WT

B3: FgαCC8 (C-terminal 23 amino acids of the fibrinogen α chain), P02671-2 K620A (peptide)
chain: MADEAGSEADHEGTHSTARGHAK
percent of parent [26]: 77 % of WT
